Reference: patent US7700353B2, “Compositions and methods for inducing apoptosis in tumor cells” (E-P Therapeutics, Inc., priority 1998, dated 2010)

Columns and labels:
[1] = tested on: neuroblastoma SK-N-F1 cells; experiment: Soft agar colony formation (hEb peptide); type: cell-based, human; conditions: 3.2 μM
Procedure: The effect of hEb-peptide on in vitro colony formation was tested in the presence or absence of either the mature hlGF-I or fetal bovine serum (FIG. 12). Human neuroblastoma SK-N-F1 cells (10^4) were mixed with 0.4% soft agar supplemented with or without hEb peptide (3.2 µM), IGF-I (5 nM) and/or fetal bovine serum (2.5%), as indicated. The cell mixtures were seeded on top of a solidified basal medium DMEM/F12 (1:1) containing 0.5% agar. Medium supplemented with various peptides or serum were overlaid on top of the solidified cell layer followed by a two-week period incubation at 37° C. in a 5% CO2 humidified incubator. The percentage of cells formed into colonies with a diameter greater than 100 µm Macpherson, Tissue culture methods and applications, pp 276-80: N.Y. Academic Press, 1973) were scored in triplicate and subjected to Student t-test analysis. At least three independent assays under each treatment conditions were carried out.

[2] = tested on: MDA-MB-231 and ZR-75-1 cells; experiment: Colony formation of hEb cDNA transfectants; type: cell-based, human; conditions: cells transfected with hEb cDNA
Procedure: Two gene constructs, CMV-IG F-1-sp-hEb-cDNA-IRES-EGFP and CMV-IRES-EGFP were used in the transfection studies. The first construct (FIG. 9B) contained hEb peptide cDNA (with a signal peptide sequence of hlGF-1), a ribosome re-entry site (IRES) and an enhanced green fluorescence protein (EGFP) marker gene. […] The expression of both gene constructs was driven by a promoter from CMV.
Transfection of the cells was accomplished as follows. MDA-MB-231 cells were cultured in F12/DMEM supplemented with 10% FBS and 10 ng/ml of insulin to 90% confluence. About 5×10^6 cells were harvested and resuspended in 1 mL of serum-free F12/DMEM containing 20 µg of un-linearized constructs. The cells were electroporated in a BRL Cell-Porator using the following settings: low .OMEGA., 1180 micro Faraday (µF) capacitance, and two pulses at 200 volts. Following electroporation, cells were resuspended in 12 mL of fresh growth medium and seeded into a 6-well plate to recover. Permanent transfectants expressing green fluorescence protein (GFP) were enriched in a medium containing neomycin (G418) at 1 mg/mL for ten days and followed with 500 µg/mL for continuous maintenance. Individual green cell clones of transfectants were isolated from the enriched population by the method of serial dilution. […]

[3] = tested on: ovarian cancer cells (SKOV-3); experiment: Apoptosis observed under microscope; type: cell-based, human; conditions: 0.1-3.4 μM, 4 hours
Procedure: FIG. 22 depicts apoptosis in ovarian cancer cells (SKOV) induced by various amounts of rtEa4-peptide. SKOV cells were treated with various amounts (0.1-3.4 μM) for 4 hours and observed under a microscope. Arrows indicate apoptotic cells.
(§1) Killing of cancer cells by E-peptide could be the consequence of apoptosis or necrosis. To differentiate these two possibilities, MDA-MB-231 (C) cells were grown in culture in the presence of about 1.5 μM of trout Ea4-peptide. After about two hours of incubation the cells were observed under a microscope. […] FIG. 22 presents the results of the effect of trout Ea4-peptide on induction of apoptosis in ovarian cancer cells (SKOV-3).

[4] = tested on: NIH 3T3 cells and caprine mammary epithelium cells (CMEC); conditions: recombinant peptides; cited from earlier work
MDA-MB-231(C) = experiment: Induction of apoptosis (TUNEL assay); type: cell-based, human; conditions: about 1.5 μM, two to three days
Procedure: FIG. 23 depicts induction of apoptosis in MDA-MB-231 cells by rtEA4-peptide. MDA-MB-231 cells were treated wit control protein or rtEa4-peptide (about 1.5 μM) for two days, and three days, and were then subjected to TUNEL assay. (A) Treatment with rtEa4-peptide for two days; (B) Treatment with rtEa-4-peptide for three days.
(§2) FIG. 24 depicts the effect of rtEa4-peptide on induction of apoptosis in MDA-MB-231 cells treated with rtEa4-peptide. (A) Detection of apoptosis by TUNEL assay; (B) Detection of apoptosis y detecting the induction of the activated caspase-3 activity. MDA-MB-231 cells were treated with about 1.5 μM of rtEa4-peptide for about 48 hours, fixed and subjected to TUNEL assay or stained with anti-human activated caspase-3 serum conjugated with rhodamine. Hydrogen peroxide (H2O2), 0.5 mM, was used to induce apoptosis as a positive control.

MDA-MB-231 (C) cells = experiment: Apoptosis observed under microscope; type: cell-based, human; conditions: about 1.5 μM, about two hours
Procedure: FIG. 21 depicts apoptosis in MDA-MB-231 cells induced by rtEa4-peptide. MDA-MB-231 cells treated with about 1.5 μM of rtEa4-peptide (A, B, and C) or control peptide (D) for about two hours and observed under a microscope. Arrows indicate apoptotic cells.
as §1

[5] = tested on: activated caspase-3 in MDA-MB-231(C); experiment: Activated caspase-3 staining; type: cell-based, human; conditions: about 1.5 μM, about 48 hours
Procedure: as §2
Induction of caspase-3 has been widely used as an indicator of cells undergoing apoptosis.

[6] = tested on: cultured BALB/3T3 fibroblast; conditions: recombinant peptides; cited from earlier work
[7] = tested on: HT-29 or MDA-MB-231 cells; experiment: Colony formation assay in semi-solid medium (Ea-4 peptide); type: cell-based, human; conditions: increasing concentrations (0.4 to 1.6 μM), 1.25% FBS, vs control protein
Procedure: Colony formation assays were conducted following the method described by Yang (1975). About 2×10^4 of HT-29 (colon cancer cells) or MDA-MB-231 cells (aggressive breast cancer cells) at log phase were plated in their respective basal medium containing 1.25% FBS and 0.5% purified agar (Difco laboratories), and supplemented with various concentrations (0.4 to 1.6 µM) of the recombinant rainbow trout Ea-4 peptide, or the same amount of the control protein, in 6-well culture chambers. After the medium is solidified, each well is overlaid with 1 mL of the basal medium (containing 1.25% FBS) supplemented with same concentration of the trout Ea-4 peptide. The plates were incubated at 37° C. in a humidified incubator with 5% CO2 and examined daily under an inverted microscope for 2-3 weeks. Colonies were observed under an Olympic inverted microscope equipped with phase contrast objective lenses (final magnification: 40×). Colonies with sizes ≥50 µm were scored. The viability of cells at the conclusion of the experiment was confirmed by dye extrusion assay with tryptan blue. The assay was conducted two times.

B1: hEb: chemically synthesized human Eb peptide of pro-IGF-I, 77 amino acid residues (SEQ ID NO:1) (peptide, listed as Homo sapiens)
chain: RSVRAQRHTDMPKTQKYQPPSTNKNTKSQRRKGWPKTHPGGEQKEGTEASLQIRGKKKEQRREIGSRNAECRGKKGK
inhibition of colony formation ([1]; absence of serum and growth factors, colonies >100 μm): 64% | inhibitory effect on anchorage-independent growth ([1]; over all medium conditions): 59-73% | inhibition of colony formation ([1]; presence of FBS (2.5%)): 73% | inhibition of colony formation ([1]; presence of hIGF-I (5 nM)): 59% | colony formation activities [2]: greatly reduced or diminished completely

B2: rtEa-4: recombinant Ea-4 peptide of rainbow trout pro-IGF-I, 74 amino acid residues (SEQ ID NO: 2) (protein)
chain: RSVRAQRHTDMPRTPKVSTAVQNVDRGTERRTAQHPDKTKTKKKPLSGHSHPSCKEVHQKNSSRGNTGGRNYRM
modifications: Oncorhynchus mykiss
apoptosis (microscopy) [3]: dose-dependent induction of apoptosis | mitogenic activity [4]: possess mitogenic activity | TUNEL staining (MDA-MB-231(C)): TUNEL staining positive | apoptosis (microscopy) (MDA-MB-231 (C) cells): going through apoptosis | level of activated caspase-3 activity [5]: induced | mitogenic activity [6]: possess mitogenic activity | colonies developed in soft agar medium [7]: fewer colonies
